We go through four molecules from publication PMC3664792 (Nucleic Acids Research, 2013).

For one assay, the target named is α270-His6 (E. coli, UniProt P10443 1-270). As to the kind of experiment: NMR.
In a further assay the target is His6-αGL (E. coli, UniProt P10443 1-1160, A921L | M923L | Val832Gly). The experiment in a line: pull-down.
The target of the next assay is β2 sliding clamp (E. coli, UniProt P0A988 1-366). As to the kind of experiment: SEC. (In general: In gel filtration, larger molecules generally elute earlier.)
Assay [1] deals with α270(L21P) in construct A (E. coli, UniProt P10443 1-270, Leu21Pro). As to the kind of experiment: crystal structure.
Assay [2] concerns the target α270 in construct A (εCTS35–α270) (E. coli, UniProt P10443 1-270). As to the kind of experiment: NMR.

B1: εCTS59 (domain or fragment)
chain: MAFAMEGETQQQQGEATIQRIVRQASKLRVVFATDEEIAAHEARLDLVQKKGGSCLWRA
B1: in the assay with α270-His6, the binding result is given as “binds”.

B2: εL (natural protein)
chain: MSTAITRQIVLDTETTGMNQIGAHYEGHKIIEIGAVEVVNRRLTGNNFHVYLKPDRLVDPEAFGVHGIADEFLLDKPTFAEVADEFMDYIRGAELVIHNAAFDIGFMDYEFSLLKRDIPKTNTFCKVTDSLAVARKMFPGKRNSLDALCARYEIDNSKRTLHGALLDAQILAEVYLAMTGGQLSLPLAMEGETQQQQGEATIQRIVRQASKLRVVFATDEEIAAHEARLDLVQKKGGSCLWRA
As to B2, the binding result in the assay with His6-αGL and in the assay with β2 sliding clamp was “binds” in each case. For the molecule ATIQRIVRQASKLRVVFATDEEIAAHEARLDLVQKKGGSCLWRA (domain or fragment) [εCTS44 (residues 200–243 of ε) in construct A], the binding result in assay [1] is recorded as “binds”.

On to ASKLRVVFATDEEIAAHEARLDLVQKKGGSCLWRA (domain or fragment) [εCTS35 (residues 209–243 of ε) in construct A], for which the binding result in assay [2] and in assay [1] was “binds” throughout.
